Measured values as given in US20150166627A1 (Sanofi, published 2015).
Like-named read-outs stand apart in the source and are kept apart here. Non-standard residues stand in square brackets, D forms with d. No end group written: not given here. Met(O2) = CS(=O)(=O)CC[C@H](N)C(=O)O; d(αMeK) = C[C@@](N)(CCCCN)C(=O)O; Met(O) = CS(=O)CC[C@H](N)C(=O)O; αMeOrn = C[C@](N)(CCCN)C(=O)O; αMeK = C[C@](N)(CCCCN)C(=O)O; Nle = CCCC[C@H](N)C(=O)O; Aib = CC(C)(N)C(=O)O

Columns and labels:
Experiment in all cases: cell-based or functional assay
human glucagon receptor = human glucagon receptor (human, UniProt P47871 26-477)
human glucagon receptor, sequence (P47871 26-477): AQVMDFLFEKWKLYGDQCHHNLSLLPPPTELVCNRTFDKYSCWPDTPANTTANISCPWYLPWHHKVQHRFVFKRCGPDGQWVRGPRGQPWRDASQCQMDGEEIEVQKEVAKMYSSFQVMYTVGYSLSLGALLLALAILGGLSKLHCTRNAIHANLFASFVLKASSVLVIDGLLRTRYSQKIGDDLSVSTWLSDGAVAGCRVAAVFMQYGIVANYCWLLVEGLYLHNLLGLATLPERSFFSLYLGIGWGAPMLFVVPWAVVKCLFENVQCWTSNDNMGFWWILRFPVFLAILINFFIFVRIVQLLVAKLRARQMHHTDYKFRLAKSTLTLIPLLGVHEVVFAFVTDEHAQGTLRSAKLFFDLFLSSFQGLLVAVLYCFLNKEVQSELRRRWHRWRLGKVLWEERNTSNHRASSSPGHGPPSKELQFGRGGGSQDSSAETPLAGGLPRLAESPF

human GIP receptor [1] = target: T1, human GIP receptor (human, UniProt P48546 22-466)
T1 sequence (looked up): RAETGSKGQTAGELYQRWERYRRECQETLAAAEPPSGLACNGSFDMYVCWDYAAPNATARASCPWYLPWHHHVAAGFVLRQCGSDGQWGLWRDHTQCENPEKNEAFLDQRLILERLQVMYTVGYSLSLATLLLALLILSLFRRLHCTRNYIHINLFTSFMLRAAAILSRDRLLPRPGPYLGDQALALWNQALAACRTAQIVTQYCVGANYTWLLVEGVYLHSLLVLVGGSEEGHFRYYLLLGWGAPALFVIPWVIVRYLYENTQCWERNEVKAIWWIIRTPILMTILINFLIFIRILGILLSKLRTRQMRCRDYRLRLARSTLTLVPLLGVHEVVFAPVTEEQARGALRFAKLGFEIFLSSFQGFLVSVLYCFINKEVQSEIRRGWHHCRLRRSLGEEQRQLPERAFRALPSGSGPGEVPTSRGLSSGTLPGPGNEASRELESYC

human GLP-1 receptor [2] = target: T2, human GLP-1 receptor (human, UniProt P43220 24-463)
human GLP-1 receptor [3] = target: T2, human GLP-1 receptor; remark: listed apart in the source
Target sequence in this assay (P43220 24-463): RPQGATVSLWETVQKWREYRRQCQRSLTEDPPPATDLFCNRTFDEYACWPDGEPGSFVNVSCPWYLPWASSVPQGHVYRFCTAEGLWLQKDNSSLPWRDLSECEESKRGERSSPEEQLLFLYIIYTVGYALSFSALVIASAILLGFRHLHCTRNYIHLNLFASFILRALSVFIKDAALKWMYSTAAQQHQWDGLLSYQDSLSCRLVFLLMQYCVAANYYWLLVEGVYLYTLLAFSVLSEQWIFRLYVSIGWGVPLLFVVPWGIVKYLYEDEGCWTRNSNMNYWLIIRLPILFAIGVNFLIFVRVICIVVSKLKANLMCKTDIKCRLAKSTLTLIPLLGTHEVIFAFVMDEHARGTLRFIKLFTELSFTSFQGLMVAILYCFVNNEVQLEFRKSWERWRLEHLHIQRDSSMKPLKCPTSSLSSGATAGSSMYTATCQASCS

human GIP receptor [4] = target: T1, human GIP receptor; remark: listed apart in the source

B1: SEQ ID NO: 10 (peptide)
peptide: Y[Aib]EGTFTSDLSIQLEKEAVRLFIEWLKAGGPSSGAPPPS-NH2
EC50 hGLUC R [pM], cAMP formation (human glucagon receptor): > 1e+06 pM
EC50 hGIP R [pM], cAMP formation (human GIP receptor [1]): 6.8 pM

B2: SEQ ID NO: 15 (peptide)
peptide: Y[Aib]EGTFTSDLSIQLEEEAVRLFIEWLKAGGPSSGAPPPS-NH2
EC50 hGLP-1 R [pM], cAMP formation (human GLP-1 receptor [2]): 1.4 pM
EC50 hGLUC R [pM], cAMP formation (human glucagon receptor): > 1e+06 pM
EC50 hGIP R [pM], cAMP formation (human GIP receptor [1]): 7.3 pM

B3: SEQ ID NO: 14 (peptide)
peptide: Y[Aib]EGTFTSDLSIQ[Met(O2)]EKEAVRLFIEWLKAGGPSSGAPPPS-NH2
EC50 hGLP-1 R [pM], cAMP formation (human GLP-1 receptor [2]): 0.6 pM
EC50 hGLUC R [pM], cAMP formation (human glucagon receptor): > 1e+06 pM
EC50 hGIP R [pM], cAMP formation (human GIP receptor [1]): 4.1 pM

B4: SEQ ID NO: 9 (peptide)
peptide: Y[Aib]EGTFTSDLSIQMEKEAVRLFIEWLKAGGPSSGAPPPS-NH2
EC50 hGLP-1 R [pM], cAMP formation (human GLP-1 receptor [2]): 1.1 pM
EC50 hGLUC R [pM], cAMP formation (human glucagon receptor): > 1e+06 pM
EC50 hGIP R [pM], cAMP formation (human GIP receptor [1]): 3.1 pM

B5: Tyr(1)Ile(12)-GLP1 (peptide)
peptide: YAEGTFTSDVSIYLEGQAAKEFIAWLVKGR
modifications: ends and bridges not checked
EC50 hGLP-1 R [pM], cAMP formation (human GLP-1 receptor [3]): 5 pM
EC50 hGIP R [pM], cAMP formation (human GIP receptor [4]): 3660 pM

B6: SEQ ID NO: 8 (peptide)
peptide: YXEGTFTSDLSIQMEEEAVRLFIEWLKAGGPSSGAPPPS
modifications: Aib at position 2; C-terminal amide (-NH2)
EC50 hGLUC R [pM], cAMP formation (human glucagon receptor): > 1e+06 pM
EC50 hGIP R [pM], cAMP formation (human GIP receptor [1]): 9.8 pM

B7: SEQ ID NO: 20 (peptide)
peptide: Y[Aib]EGTFTSDLSIQLEKEAVRLFIEWLKAGGPSSGAPPPS-NH2
EC50 hGLP-1 R [pM], cAMP formation (human GLP-1 receptor [2]): 1 pM
EC50 hGLUC R [pM], cAMP formation (human glucagon receptor): > 1e+06 pM
EC50 hGIP R [pM], cAMP formation (human GIP receptor [1]): 3.9 pM

B8: SEQ ID NO: 16 (peptide)
peptide: Y[Aib]EGTFTSDLSIQLEEEAV[Aib]LFIEWLKAGGPSSGAPPPS-NH2
EC50 hGLP-1 R [pM], cAMP formation (human GLP-1 receptor [2]): 1 pM
EC50 hGLUC R [pM], cAMP formation (human glucagon receptor): > 1e+06 pM
EC50 hGIP R [pM], cAMP formation (human GIP receptor [1]): 1.5 pM

B9: SEQ ID NO: 18 (peptide)
peptide: Y[Aib]EGTFTSDLSIQLEEEAV[d(αMeK)]LFIEWLKAGGPSSGAPPPS-NH2
EC50 hGLP-1 R [pM], cAMP formation (human GLP-1 receptor [2]): 2 pM
EC50 hGLUC R [pM], cAMP formation (human glucagon receptor): > 1e+06 pM
EC50 hGIP R [pM], cAMP formation (human GIP receptor [1]): 36.1 pM

B10: SEQ ID NO: 12 (peptide)
peptide: Y[Aib]EGTFTSDLSIQ[Nle]EKEAVRLFIEWLKAGGPSSGAPPPSK-NH2
EC50 hGLUC R [pM], cAMP formation (human glucagon receptor): > 1e+06 pM
EC50 hGIP R [pM], cAMP formation (human GIP receptor [1]): 8.7 pM

B11: SEQ ID NO: 13 (peptide)
peptide: Y[Aib]EGTFTSDLSIQ[Met(O)]EKEAVRLFIEWLKAGGPSSGAPPPS-NH2
EC50 hGLP-1 R [pM], cAMP formation (human GLP-1 receptor [2]): 0.4 pM
EC50 hGLUC R [pM], cAMP formation (human glucagon receptor): > 1e+06 pM
EC50 hGIP R [pM], cAMP formation (human GIP receptor [1]): 8.1 pM

B12: SEQ ID NO: 17 (peptide)
peptide: Y[Aib]EGTFTSDLSIQLEEEAV[αMeK]LFIEWLKAGGPSSGAPPPS-NH2
EC50 hGLP-1 R [pM], cAMP formation (human GLP-1 receptor [2]): 1.1 pM
EC50 hGLUC R [pM], cAMP formation (human glucagon receptor): > 1e+06 pM
EC50 hGIP R [pM], cAMP formation (human GIP receptor [1]): 1.8 pM

B13: SEQ ID NO: 19 (peptide)
peptide: Y[Aib]EGTFTSDLSIQLEEEAV[αMeOrn]LFIEWLKAGGPSSGAPPPS-NH2
EC50 hGLUC R [pM], cAMP formation (human glucagon receptor): > 1e+06 pM
EC50 hGIP R [pM], cAMP formation (human GIP receptor [1]): 2.2 pM
